Experimental data published in US20210395374A1.

Legend:
Human CD3ε/δ (human) = Human CD3ε/δ (human) (UniProt P07766); test: kinetic binding analysis (ka/kd); method not stated
[1] = molecular target: Cynomolgus CD3ε/δ (cynomolgus monkey) (UniProt Q95LI5); test: as above
UniProt Q95LI5, sequence (Q95LI5 22-117, stated change not applied, chain 1 of 2): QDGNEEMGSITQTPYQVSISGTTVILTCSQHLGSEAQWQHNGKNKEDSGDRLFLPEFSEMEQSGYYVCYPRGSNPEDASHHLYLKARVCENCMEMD
UniProt Q95LI5, sequence (Q95LI8 22-105, stated change not applied, chain 2 of 2, further chain): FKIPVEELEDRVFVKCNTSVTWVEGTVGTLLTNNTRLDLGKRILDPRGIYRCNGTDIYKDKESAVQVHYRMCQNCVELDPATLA

UniProt P07766, sequence (P07766 23-126, stated change not applied, chain 1 of 2): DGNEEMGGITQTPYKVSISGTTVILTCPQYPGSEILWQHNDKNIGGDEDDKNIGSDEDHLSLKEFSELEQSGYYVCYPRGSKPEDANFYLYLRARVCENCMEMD
UniProt P07766, sequence (P04234 22-105, stated change not applied, chain 2 of 2, further chain): as the sequence (Q95LI8 22-105, stated change not applied, chain 2 of 2, further chain) above, with V5I, K15N, V20I, T32S, N33D, N34I, A64T, N74S, L83V counted along it

B1: DART-A (sequence-optimized CD123×CD3 bispecific diabody) (bispecific antibody)
chain 1: QAVVTQEPSLTVSPGGTVTLTCRSSTGAVTTSNYANWVQQKPGQAPRGLIGGTNKRAPWTPARFSGSLLGGKAALTITGAQAEDEADYYCALWYSNLWVFGGGTKLTVLGGGGSGGGGEVQLVQSGAELKKPGASVKVSCKASGYTFTDYYMKWVRQAPGQGLEWIGDIIPSNGATFYNQKFKGRVTITVDKSTSTAYMELSSLRSEDTAVYYCARSHLLRASWFAYWGQGTLVTVSSGGCGGGEVAALEKEVAALEKEVAALEKEVAALEK
chain 2: DFVMTQSPDSLAVSLGERVTMSCKSSQSLLNSGNQKNYLTWYQQKPGQPPKLLIYWASTRESGVPDRFSGSGSGTDFTLTISSLQAEDVAVYYCQNDYSYPYTFGQGTKLEIKGGGSGGGGEVQLVESGGGLVQPGGSLRLSCAASGFTFSTYAMNWVRQAPGKGLEWVGRIRSKYNNYATYYADSVKDRFTISRDDSKNSLYLQMNSLKTEDTAVYYCVRHGNFGNSYVSWFAYWGQGTLVTVSSGGCGGGKVAALKEKVAALKEKVAALKEKVAALKE
Kd (Human CD3ε/δ (human)): 9 nM
koff (Human CD3ε/δ (human)): 0.005 s⁻¹
kon (Human CD3ε/δ (human)): 570000 M⁻¹ s⁻¹
Kd [1]: 9.2 nM
koff [1]: 0.005 s⁻¹
kon [1]: 550000 M⁻¹ s⁻¹
